Assay results as given in patent US20090291081A1 (AbbVie / Abbott, published 2009).
Residue numbers refer to the chain shown, from its start. Several values for one entry are separate records, joined by “and”; a condition that tells them apart may be missing. Equal values may be shown once.

T1: human IL-1α (human, UniProt P01583 113-271)
T1 sequence (looked up): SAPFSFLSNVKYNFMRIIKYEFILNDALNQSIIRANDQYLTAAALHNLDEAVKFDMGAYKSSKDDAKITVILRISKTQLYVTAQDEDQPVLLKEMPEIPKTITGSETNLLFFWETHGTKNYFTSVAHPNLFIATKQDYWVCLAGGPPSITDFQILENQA

B1: ABT2-108-504/ABT1-122 hu IgG1/K wt (bispecific antibody, V domains shown)
VH: EVQLLESGGGLVQPGGSLRLSCAASGFTFADEGMMWVRQAPGKGLEWVSRIGQDGKNTYYADSVKGRFTISRDNSKNTLYLQMNSLRAEDTAVYYCAKYTGRVGVHHLFDYWGQGTLVTVSS
VL: DIQMTQSPSSLSASVGDRVTITCRASQPIWTELNWYQQKPGKAPKLLIYGSSSLQSGVPRFSGSGSGTDFTLTISSLQPEDFATYYCQQFAYFPATFGQGTKVEIKR
B2: ABT2-108-537x/ABT1-122 hu IgG1/K wt (bispecific antibody, V domains shown)
VH: B1 VH with A61R, D62M, S63D, V103I, G104L, V105G
VL: B1 VL
B3: ABT2-108-518/ABT1-122 hu IgG1/K wt (bispecific antibody, V domains shown)
VH: B1 VH with D31E, E32Y, G33T, A61R, D62M, S63D
VL: B1 VL
B4: ABT2-108-617/ABT1-122 hu IgG1/K wt (bispecific antibody, V domains shown)
VH: B1 VH with D31E, E32Y, G33T, V103I, G104F, V105T
VL: B1 VL
B5: ABT2-108-534x/ABT1-122 hu IgG1/K wt (bispecific antibody, V domains shown)
VH: B1 VH with G52T, Q53Y, D54S, V103I, G104F, V105S
VL: B1 VL
B6: ABT2-108-521 (other)
VH: B1 VH with D31E, E32Y, G33T, V103I, G104L, V105G
notes: VH dAb
B7: ABT2-108-612/ABT1-122 hu IgG1/K wt (bispecific antibody, V domains shown)
VH: B1 VH with D31E, E32Y, G33T, V103I, G104M, V105G
VL: B1 VL
B8: ABT2-108-603/ABT1-122 hu IgG1/K wt (bispecific antibody, V domains shown)
VH: B1 VH with D31E, E32Y, G33T, G52T, Q53D, D54A
VL: B1 VL
B9: ABT2-108-605 (other)
VH: B1 VH with D31E, E32Y, G33T, A61R, D62E, S63D
notes: VH dAb
B10: ABT2-108-534x (other)
VH: B1 VH with G52T, Q53Y, D54S, V103I, G104F, V105S
notes: VH dAb
B11: ABT2-108-602 (other)
VH: B1 VH with D31E, G33K, M34Y
notes: VH dAb
B12: ABT2-108-527 (other)
VH: B1 VH with D31E, E32Y, G33T, G104F, V105K
notes: VH dAb
B13: ABT2-108-603 (other)
VH: B1 VH with D31E, E32Y, G33T, G52T, Q53D, D54A
notes: VH dAb
B14: ABT2-108-504 (other)
VH: B1 VH
notes: VH dAb
B15: ABT2-108-509 (other)
VH: B1 VH with D31E, E32Y, G33T, G52T, Q53Y, D54S
notes: VH dAb
B16: ABT2-108-518 (other)
VH: B1 VH with D31E, E32Y, G33T, A61R, D62M, S63D
notes: VH dAb
B17: ABT2-108-601 (other)
VH: B1 VH with D31E, G33S, M34W
notes: VH dAb
B18: ABT2-108-511 (other)
VH: B1 VH with D31E, E32Y, G33T, Y59V, Y60I, A61R
notes: VH dAb
B19: ABT2-108-524 (other)
VH: B1 VH with D31E, E32Y, G33T, G104F, V105N
notes: VH dAb
B20: ABT2-108-604 (other)
VH: B1 VH with D31E, E32Y, G33T, I51V, G52T, Q53Y
notes: VH dAb
B21: ABT2-65-166/ABT1-95-15 hu IgG1/K wt (bispecific antibody, V domains shown)
VH: EVQLLESGGGLVQPGGSLRLSCAASGFTFEDYQMGWVRQAPGKGLEWVSSISAMGGRTYYADSVKGRFTISRDNSKNTLYLQMNSLRAEDTAVYYCAQNLVRLGRSRWMFDYWGQGTLVTVSS
VL: DIQMTQSPSSLSASVGDRVTITCRASQPIVRNLRWYQQKPGKAPKLLIYSSSYLEPGVPSRFSGSGSGTDFTLTISSLQPEDFATYHCQQGYRWPVTFGQGTKVEIKR
B22: ABT2-65-201/ABT1-95-15 hu IgG1/K mut (234; 235) (bispecific antibody, V domains shown)
VH: B21 VH with A23V, G56R
VL: B21 VL
B23: ABT2-65-166/ABT1-95-184 hu IgG1mut 234, 235/K (bispecific antibody, V domains shown)
VH: B21 VH
VL: B21 VL with Q27R, P28T, I29P, S51R, Q89L, V96P
B24: ABT2-65-8/ABT1-122 hu IgG1/K wt (bispecific antibody, V domains shown)
VH: B21 VH with G56N, N74D, L103M, G104D, R105S, S106R
VL: B1 VL
B25: ABT2-65/ABT1-122 hu IgG1/K wt (bispecific antibody, V domains shown)
VH: B21 VH with G56N, N74D, Q98K, L103T, G104Q, R105S, S106K, R107M
VL: B1 VL
B26: ABT2-108-521/ABT1-95-A3 hu IgG1 wt (bispecific antibody, V domains shown)
VH: B1 VH with D31E, E32Y, G33T, V103I, G104L, V105G
VL: B21 VL with Q27K, I29G, L33M, S51V, Q89L, V96P
B27: ABT2-65-166SK (other)
VH: B21 VH with E30S, Q98K
notes: VH dAb
B28: ABT2-65-203 (other)
VH: B21 VH with A23V, G56F
notes: VH dAb
B29: ABT2-65-201 (other)
VH: B21 VH with A23V, G56R
notes: VH dAb
B30: ABT2-65-B2 (other)
VH: B21 VH with A23V, G56R, N74D
notes: VH dAb
B31: ABT2-65-B3 (other)
VH: B21 VH with A23V, G56N, T58A, N74D
notes: VH dAb
B32: ABT2-65-166S (other)
VH: B21 VH with E30S
notes: VH dAb

Legend:
human IL-1α = molecular target: T1, human IL-1α; assay: cell-based or functional assay
human IL-1β [1] = molecular target: human IL-1β (human, UniProt P01584 117-269); assay: cell-based or functional assay
human IL-1β [2] = molecular target: T2, human IL-1β (human, UniProt P01584 117-269); assay: Table 60 heading; dAbs from selection on antigen
T2 construct: also called IL-1beta; hIL-1β

Binder	IL-1α IC50 (human IL-1α) [nM]	IL-1β IC50 (human IL-1β [1])	binding result (human IL-1β [2])
B1	1500	15 nM	–
B2	1000	0.007 nM and 0.02 nM	–
B3	400	0.5 nM	–
B4	150	0.05 nM	–
B5	1000	0.025 nM and 0.035 nM	–
B6	–	–	binds
B7	100	1 nM and 0.45 nM	–
B8	1500	10 nM	–
B9	–	–	binds
B10	–	–	binds
B11	–	–	binds
B12	–	–	binds
B13	–	–	binds
B14	–	–	binds
B15	–	–	binds
B16	–	–	binds

Binder	IL-1α IC50 (human IL-1α) [nM]	IL-1β IC50 (human IL-1β [1])	binding result (human IL-1β [2])
B17	–	–	binds
B18	–	–	binds
B19	–	–	binds
B20	–	–	binds
B21	1.89	0.13 nM	–
B22	0.652	0.03 nM	–
B23	0.068	0.15 nM	–
B24	1000	2.7 nM	–
B25	2000	2000 nM	–
B26	0.027	0.098 nM	–
B27	–	–	binds
B28	–	–	binds
B29	–	–	binds
B30	–	–	binds
B31	–	–	binds
B32	–	–	binds
